# Source: US20060280751A1
# Key:
# [1] = biological target: V3/β-Gal from patients' HIV-1 clones with IGPGRTF in the middle portion of V3 region (HIV-1 from patients); assay: sandwich ELISA: V3/β-Gal (200 ng/ml) captured by anti-β-Gal antibody, 1 µg/ml KD-247
# [2] = biological target: V3/β-Gal from patients' HIV-1 clones with IGPGRAL in the middle portion of V3 region (HIV-1 from patients); assay: as above
# [3] = biological target: V3/β-Gal from patients' HIV-1 clones with IGPGRAF in the middle portion of V3 region (HIV-1 from patients); assay: as above
# [4] = biological target: V3/β-Gal from patients' HIV-1 clones with IGPARAF in the middle portion of V3 region (HIV-1 from patients); assay: as above
# [5] = biological target: V3/β-Gal from patients' HIV-1 clones with VGPGRAL in the middle portion of V3 region (HIV-1 from patients); assay: as above
# [6] = biological target: V3/β-Gal from patients' HIV-1 clones with IGPGRSF in the middle portion of V3 region (HIV-1 from patients); assay: as above
# [7] = biological target: V3/β-Gal from patients' HIV-1 clones with IGPGRAI in the middle portion of V3 region (HIV-1 from patients); assay: as above
# [8] = biological target: envelope glycoprotein gp120 of HIV-1 laboratory strain 89.6 (HIV-1 89.6 strain) (UniProt Q73372); assay: cell-based or functional assay
# [9] = biological target: envelope glycoprotein gp120 of HIV-1 laboratory strain MN (HIV-1 MN strain) (UniProt P05877); assay: cell-based or functional assay
# [10] = biological target: envelope glycoprotein gp120 of HIV-1 laboratory strain AD8 (HIV-1 AD8 strain); assay: cell-based or functional assay
# [11] = biological target: envelope glycoprotein gp120 of HIV-1 laboratory strain IIIB (HIV-1 IIIB strain); assay: cell-based or functional assay
# [12] = biological target: envelope glycoprotein gp120 of HIV-1 laboratory strain SF2 (HIV-1 SF2 strain); assay: cell-based or functional assay
substance,measurement,setting,value
"KD-247, a humanized monoclonal antibody to PND region",relative binding (% of V3/β-Gal from MN strain),[1],> 100%
same,relative binding (% of V3/β-Gal from MN strain),[2],> 100%
same,relative binding (% of V3/β-Gal from MN strain),[3],> 100%
same,relative binding (% of V3/β-Gal from MN strain),[4],> 100%
same,relative binding (% of V3/β-Gal from MN strain),[5],> 100%
same,relative binding (% of V3/β-Gal from MN strain),[6],> 100%
same,relative binding (% of V3/β-Gal from MN strain),[7],> 100%
same,Neutralizing activity IC50 (p24 antigen in PBMC culture),[8],0.2 µg/mL
same,Neutralizing activity IC90 (p24 antigen in PBMC culture),[8],2.5 µg/mL
same,Neutralizing activity IC50 (p24 antigen in PBMC culture),[9],0.1 µg/mL
same,Neutralizing activity IC90 (p24 antigen in PBMC culture),[9],1 µg/mL
same,Neutralizing activity IC50 (p24 antigen in PBMC culture),[10],5 µg/mL
same,Neutralizing activity IC90 (p24 antigen in PBMC culture),[10],10 µg/mL
same,Neutralizing activity IC50 (p24 antigen in PBMC culture),[11],> 50 µg/mL
same,Neutralizing activity IC90 (p24 antigen in PBMC culture),[11],> 50 µg/mL
same,Neutralizing activity IC50 (p24 antigen in PBMC culture),[12],1 µg/mL
same,Neutralizing activity IC90 (p24 antigen in PBMC culture),[12],5 µg/mL
